The results in this text go back to IntAct's records for PubMed 33727702.

Sequences and labels used below:
B1: Interferon-induced helicase C domain-containing protein 1 (Homo sapiens), Q9BYX4 (parent)
chain: MSNGYSTDENFRYLISCFRARVKMYIQVEPVLDYLTFLPAEVKEQIQRTVATSGNMQAVELLLSTLEKGVWHLGWTREFVEALRRTGSPLAARYMNPELTDLPSPSFENAHDEYLQLLNLLQPTLVDKLLVRDVLDKCMEEELLTIEDRNRIAAAENNGNESGVRELLKRIVQKENWFSAFLNVLRQTGNNELVQELTGSDCSESNAEIENLSQVDGPQVEEQLLSTTVQPNLEKEVWGMENNSSESSFADSSVVSESDTSLAEGSVSCLDESLGHNSNMGSDSGTMGSDSDEENVAARASPEPELQLRPYQMEVAQPALEGKNIIICLPTGSGKTRVAVYIAKDHLDKKKKASEPGKVIVLVNKVLLVEQLFRKEFQPFLKKWYRVIGLSGDTQLKISFPEVVKSCDIIISTAQILENSLLNLENGEDAGVQLSDFSLIIIDECHHTNKEAVYNNIMRHYLMQKLKNNRLKKENKPVIPLPQILGLTASPGVGGATKQAKAEEHILKLCANLDAFTIKTVKENLDQLKNQIQEPCKKFAIADATREDPFKEKLLEIMTRIQTYCQMSPMSDFGTQPYEQWAIQMEKKAAKEGNRKERVCAEHLRKYNEALQINDTIRMIDAYTHLETFYNEEKDKKFAVIEDDSDEGGDDEYCDGDEDEDDLKKPLKLDETDRFLMTLFFENNKMLKRLAENPEYENEKLTKLRNTIMEQYTRTEESARGIIFTKTRQSAYALSQWITENEKFAEVGVKAHHLIGAGHSSEFKPMTQNEQKEVISKFRTGKINLLIATTVAEEGLDIKECNIVIRYGLVTNEIAMVQARGRARADESTYVLVAHSGSGVIEHETVNDFREKMMYKAIHCVQNMKPEEYAHKILELQMQSIMEKKMKTKRNIAKHYKNNPSLITFLCKNCSVLACSGEDIHVIEKMHHVNMTPEFKELYIVRENKALQKKCADYQINGEIICKCGQAWGTMMVHKGLDLPCLKIRNFVVVFKNNSTKKQYKKWVELPITFPNLDYSECCLFSDED
B2: Interferon-induced helicase C domain-containing protein 1 (Homo sapiens), Q9BYX4 (parent)
chain: B1 chain
partner: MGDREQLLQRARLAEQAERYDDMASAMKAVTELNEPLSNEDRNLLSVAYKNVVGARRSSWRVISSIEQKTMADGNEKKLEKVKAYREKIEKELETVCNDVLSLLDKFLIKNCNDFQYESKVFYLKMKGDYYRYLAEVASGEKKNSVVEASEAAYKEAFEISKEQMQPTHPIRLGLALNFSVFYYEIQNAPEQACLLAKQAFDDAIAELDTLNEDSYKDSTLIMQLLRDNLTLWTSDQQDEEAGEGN

In the first experiment the parent is B1. As to conditions: with isg15_human ISG15, P05161.
Chain of isg15_human ISG15, P05161 (P05161 whole entry): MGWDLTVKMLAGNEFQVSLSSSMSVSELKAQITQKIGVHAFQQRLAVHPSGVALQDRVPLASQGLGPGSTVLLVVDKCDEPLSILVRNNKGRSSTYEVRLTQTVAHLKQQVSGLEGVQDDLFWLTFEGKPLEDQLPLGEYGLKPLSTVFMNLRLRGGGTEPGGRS
On to K43R, for which the “effect of a mutation on the interaction” value is on record as “decreasing interaction strength”. Consider K128R, for which the “effect of a mutation on the interaction” value is listed as “with no effect”. On the same count and under the same terms, the entry for K137R is “with no effect”. The same measure, in the same setting: the entry for K169R is “with no effect”; for K23R it is “decreasing interaction strength”. For K174R, the “effect of a mutation on the interaction” value is “with no effect”. The same measure, in the same setting: for K68R the value was “decreasing interaction strength”; for K23R;K43R, “disrupting interaction strength”.

Turning to K235R, the “effect of a mutation on the interaction” value was “increasing interaction strength”.

In the next experiment the parent is B2. As to conditions: with 1433f_human YWHAH.
For the variant K23R;K43R, the “effect of a mutation on the interaction” value is reported as “with no effect”. For the variant K68R, the “effect of a mutation on the interaction” value is recorded as “with no effect”.
